The values below are quoted from earlier work in publication PMC5488749.

Where two headings read alike, the source gives them in different places.

What is called Kd is the constant that tells how readily two partners part at equilibrium.

Series [1] concerns the target neurexin1 C-terminal peptide (Homo sapiens) (UniProt Q9ULB1).
Series [2] has as its target Caspr4 C-terminal peptide (Homo sapiens) (UniProt Q9C0A0).
The target is the same in series [3]. The source holds these as a separate data set.
Series [4] addresses neurexin1 C-terminal peptide (Homo sapiens) (UniProt Q9ULB1). This is another data set of the same source.

Sequence of UniProt Q9ULB1 (Q9ULB1 whole entry, looked up, tested part not stated): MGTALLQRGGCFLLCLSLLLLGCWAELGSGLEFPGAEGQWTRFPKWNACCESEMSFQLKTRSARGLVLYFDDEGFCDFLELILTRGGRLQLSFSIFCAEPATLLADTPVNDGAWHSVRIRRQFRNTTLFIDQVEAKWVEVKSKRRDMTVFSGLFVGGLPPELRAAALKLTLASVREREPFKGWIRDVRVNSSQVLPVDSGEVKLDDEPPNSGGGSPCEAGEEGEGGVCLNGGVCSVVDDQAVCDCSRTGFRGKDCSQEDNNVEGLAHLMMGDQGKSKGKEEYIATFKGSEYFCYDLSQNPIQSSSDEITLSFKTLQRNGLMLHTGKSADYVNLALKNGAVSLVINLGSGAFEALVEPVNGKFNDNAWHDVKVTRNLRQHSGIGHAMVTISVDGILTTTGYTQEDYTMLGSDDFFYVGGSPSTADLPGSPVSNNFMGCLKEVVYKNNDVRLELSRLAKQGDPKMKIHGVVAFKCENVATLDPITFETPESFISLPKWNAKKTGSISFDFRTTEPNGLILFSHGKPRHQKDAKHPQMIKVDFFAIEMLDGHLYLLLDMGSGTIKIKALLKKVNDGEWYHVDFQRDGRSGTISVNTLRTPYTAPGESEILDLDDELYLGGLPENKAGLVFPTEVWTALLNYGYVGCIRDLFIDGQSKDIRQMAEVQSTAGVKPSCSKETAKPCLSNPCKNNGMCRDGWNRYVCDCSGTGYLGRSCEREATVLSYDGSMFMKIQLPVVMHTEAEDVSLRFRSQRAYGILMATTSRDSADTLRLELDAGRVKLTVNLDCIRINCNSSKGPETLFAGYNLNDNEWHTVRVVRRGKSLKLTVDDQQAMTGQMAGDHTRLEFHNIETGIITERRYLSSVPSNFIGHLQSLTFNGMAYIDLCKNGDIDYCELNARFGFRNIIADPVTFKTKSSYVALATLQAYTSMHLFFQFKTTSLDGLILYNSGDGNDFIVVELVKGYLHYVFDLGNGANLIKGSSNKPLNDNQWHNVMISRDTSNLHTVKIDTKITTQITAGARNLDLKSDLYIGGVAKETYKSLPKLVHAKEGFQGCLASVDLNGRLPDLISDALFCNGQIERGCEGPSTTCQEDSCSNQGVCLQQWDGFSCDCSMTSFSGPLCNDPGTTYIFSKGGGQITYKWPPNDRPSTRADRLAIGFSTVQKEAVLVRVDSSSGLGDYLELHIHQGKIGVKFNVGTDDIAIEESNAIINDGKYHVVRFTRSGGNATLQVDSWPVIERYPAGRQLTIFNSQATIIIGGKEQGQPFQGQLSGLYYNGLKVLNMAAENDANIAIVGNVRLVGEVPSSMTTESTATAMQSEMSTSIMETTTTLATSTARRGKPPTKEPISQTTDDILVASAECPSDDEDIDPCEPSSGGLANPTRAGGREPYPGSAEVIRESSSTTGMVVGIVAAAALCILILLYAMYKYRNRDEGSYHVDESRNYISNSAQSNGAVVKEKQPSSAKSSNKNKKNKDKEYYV
Sequence of UniProt Q9C0A0 (Q9C0A0 whole entry, looked up, tested part not stated): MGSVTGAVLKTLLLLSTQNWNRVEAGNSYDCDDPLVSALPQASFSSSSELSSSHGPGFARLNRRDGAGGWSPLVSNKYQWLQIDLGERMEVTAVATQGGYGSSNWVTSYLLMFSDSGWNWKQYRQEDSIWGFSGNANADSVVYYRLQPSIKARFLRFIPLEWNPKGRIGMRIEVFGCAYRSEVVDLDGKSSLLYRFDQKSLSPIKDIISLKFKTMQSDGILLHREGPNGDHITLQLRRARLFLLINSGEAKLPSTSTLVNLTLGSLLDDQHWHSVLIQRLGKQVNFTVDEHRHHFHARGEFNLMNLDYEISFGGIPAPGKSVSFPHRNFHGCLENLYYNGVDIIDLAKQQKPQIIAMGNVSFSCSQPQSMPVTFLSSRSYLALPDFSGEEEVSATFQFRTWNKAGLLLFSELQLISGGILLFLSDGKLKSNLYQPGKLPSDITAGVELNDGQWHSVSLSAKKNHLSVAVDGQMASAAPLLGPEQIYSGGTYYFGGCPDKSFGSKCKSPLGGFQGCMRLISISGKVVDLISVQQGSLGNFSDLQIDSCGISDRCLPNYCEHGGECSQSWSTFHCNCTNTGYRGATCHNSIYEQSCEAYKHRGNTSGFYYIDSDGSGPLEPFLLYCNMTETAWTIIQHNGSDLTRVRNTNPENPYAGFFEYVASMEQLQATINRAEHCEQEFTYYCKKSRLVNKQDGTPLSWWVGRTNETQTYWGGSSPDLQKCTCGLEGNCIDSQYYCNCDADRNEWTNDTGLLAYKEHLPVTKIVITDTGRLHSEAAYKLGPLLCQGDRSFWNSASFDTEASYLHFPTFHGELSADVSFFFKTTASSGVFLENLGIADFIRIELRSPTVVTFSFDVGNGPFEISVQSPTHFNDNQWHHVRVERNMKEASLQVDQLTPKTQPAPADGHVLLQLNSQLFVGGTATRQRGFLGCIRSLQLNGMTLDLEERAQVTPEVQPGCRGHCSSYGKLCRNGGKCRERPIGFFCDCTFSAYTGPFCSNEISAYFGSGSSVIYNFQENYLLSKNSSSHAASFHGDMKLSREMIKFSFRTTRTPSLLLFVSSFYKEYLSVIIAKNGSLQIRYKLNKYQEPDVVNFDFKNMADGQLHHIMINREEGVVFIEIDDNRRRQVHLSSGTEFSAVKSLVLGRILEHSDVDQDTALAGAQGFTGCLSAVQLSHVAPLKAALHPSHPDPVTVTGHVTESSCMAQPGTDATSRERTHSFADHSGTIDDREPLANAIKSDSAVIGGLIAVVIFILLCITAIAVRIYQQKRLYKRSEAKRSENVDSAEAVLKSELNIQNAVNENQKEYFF

Take Tiam1 PDZ (from UniProt Q13009): the figures for the dissociation constant Kd in series [1] and in series [2] were 2400 µM and 18 µM, respectively.

Take Tiam2 PDZ (from UniProt Q8IVF5): the equilibrium dissociation constant (Kd) is 3 µM in series [3] and 5 µM in series [4].
